From patent US5679525 come the findings set out here.

The series concerns the target CBF1 (RBPJK), purified from HeLa (Homo sapiens) (UniProt Q06330). Nature of the series: competition.

CBF1 (RBPJK), purified from HeLa (Homo sapiens), sequence (Q06330 other isoform, or with tags, fused parts or gaps): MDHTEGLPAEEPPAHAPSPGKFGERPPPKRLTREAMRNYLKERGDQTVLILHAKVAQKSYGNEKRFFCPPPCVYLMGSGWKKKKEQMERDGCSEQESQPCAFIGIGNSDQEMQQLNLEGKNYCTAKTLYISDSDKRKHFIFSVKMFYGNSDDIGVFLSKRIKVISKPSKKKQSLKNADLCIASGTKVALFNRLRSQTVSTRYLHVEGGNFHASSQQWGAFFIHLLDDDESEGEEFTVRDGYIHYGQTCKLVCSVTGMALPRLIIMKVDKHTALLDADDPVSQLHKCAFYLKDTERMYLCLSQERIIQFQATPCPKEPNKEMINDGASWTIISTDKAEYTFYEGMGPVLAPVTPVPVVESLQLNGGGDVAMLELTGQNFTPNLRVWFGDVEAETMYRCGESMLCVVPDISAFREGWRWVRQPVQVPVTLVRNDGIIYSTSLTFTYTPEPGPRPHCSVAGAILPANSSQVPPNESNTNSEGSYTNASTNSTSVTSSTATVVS

Take “CAAGAGACAGAGTTTCTAAGCTTATTGTAATTTTAAGCATCG (double strand) [Unrelated]”: the binding signal (% reduction at 10 pmol competitor) (0% at all amounts) was determined as 0. With “GGAAACACGCCGTGGGAAAAAATTTGGC (double strand) [Cp (EBV C-promoter EBNA2 responsive element)]”, the binding signal (% reduction at 10 pmol competitor) (EMSA competition against Cp probe, 51% at 0.1, 90% at 1.0 pmol) was 98. Take “AAGCATCGTGGATATTCCCGGCACAGCT (double strand) [ELAMp kB-1]”: the binding signal (% reduction at 10 pmol competitor) (0% at 0.1, 8% at 1.0 pmol) turned out to be 44. For the setting “0% at 0.1 and 1.0 pmol, approx 250-fold weaker than Cp”, “GGAAACACGCCGTGGCTAAAAATTTGGG (double strand) [Cp-Mut]” yielded a binding signal (% reduction at 10 pmol competitor) of 19. Take “GATGCCATTGGGGATTTCCTCTTTACTG (double strand) [ELAM kB-3]”: the binding signal (% reduction at 10 pmol competitor) (0% at 0.1 and 1.0 pmol) amounted to 14. “TCCTTCAGCCCTGTGGGAACTTGCTGCT (double strand) [CD23p]”: the binding signal (% reduction at 10 pmol competitor) (22% at 0.1, 70% at 1.0 pmol, approx 2.5-fold weaker than Cp) was 91. In turn, “GGACTACCACTGTGGGATCCTCTGGAGG (double strand) [Heptamer+BamHI]” came in with a binding signal (% reduction at 10 pmol competitor) (0% at 0.1, 31% at 1.0 pmol, approx 16-fold weaker than Cp) of 75. Under “0% at 0.1 and 1.0 pmol, additional 40-fold reduction versus Heptamer+BamHI”, “GGACTACCACTGTGCCTTCCTCTGGAGG (double strand) [Heptamer-BamHI]” showed a binding signal (% reduction at 10 pmol competitor) of 8. Turning to “TATATGCCCGGGAAAGTTTTTGTATTCC (double strand) [ELAMp kB-2]”, where the note is “2% at 0.1, 27% at 1.0 pmol”, the binding signal (% reduction at 10 pmol competitor) is 51.
